Patent publication US20110300138A1 (published 2011)

Tests used:
[1] = target: thyroid stimulating hormone receptor (TSHR), full length human TSHR (human) (UniProt P16473); assay: TSH-biotin competition ELISA, TSHR coated wells; negative control, 10 µg/mL in HBD serum
[2] = target: thyroid stimulating hormone receptor (TSHR), full length human TSHR (human) (UniProt P16473); assay: TSH-biotin competition ELISA, TSHR coated wells; negative control, 0.1 µg/mL in HBD serum
[3] = target: thyroid stimulating hormone receptor (TSHR), full length human TSHR (human) (UniProt P16473); assay: TSH-biotin competition ELISA, TSHR coated wells; negative control, 0.1 µg/mL in assay buffer
[4] = target: TSH receptor (TSHR) coated on tubes (human) (UniProt P16473); assay: inhibition of 125I-K1-70 IgG binding to TSHR coated tubes; negative control 10 µg/mL in assay buffer
[5] = target: TSH receptor (TSHR) coated on tubes (human) (UniProt P16473); assay: inhibition of 125I-K1-70 IgG binding to TSHR coated tubes; negative control 0.01 µg/mL in assay buffer
[6] = target: human TSH receptor (full length) coated on ELISA plate wells (human) (UniProt P16473); assay: TSH-biotin binding inhibition ELISA, TSHR coated wells; 0.1 µg/mL in assay buffer; negative control MAb
[7] = target: TSH receptor (TSHR), full length human, coated on tubes (human) (UniProt P16473); assay: inhibition of 125I-TSH binding to TSHR coated tubes; 0.01 µg/mL, diluted in HBD serum pool; mean of duplicates
[8] = target: TSHR (full length) coated on tubes (human) (UniProt P16473); assay: inhibition of 125I-K1-18 Fab (competitor) binding to TSHR coated tubes; negative control 0.1 µg/mL in HBD serum
[9] = target: TSH receptor (TSHR), full length human, coated on tubes (human) (UniProt P16473); assay: inhibition of 125I-K1-18 IgG binding to TSHR coated tubes; competitor 125I-K1-18 IgG; negative control sample at 1 µg/mL in assay buffer
[10] = target: TSH receptor (TSHR), full length human, coated on tubes (human) (UniProt P16473); assay: inhibition of 125I-K1-18 IgG binding to TSHR coated tubes; competitor 125I-K1-18 IgG; negative control sample at 0.1 µg/mL in assay buffer
[11] = target: TSH receptor (full length human TSHR) (human) (UniProt P16473); assay: competition ELISA: inhibition of M22 Fab-peroxidase (competitor) binding to TSHR coated wells; negative control at 0.01 µg/mL diluted in assay buffer
[12] = target: thyroid stimulating hormone receptor (TSHR), full length human TSHR (human) (UniProt P16473); assay: TSH-biotin competition ELISA, TSHR coated wells; 0.1 µg/mL in HBD serum
[13] = target: TSH receptor (full length human TSHR) (human) (UniProt P16473); assay: competition ELISA: inhibition of M22 Fab-peroxidase (competitor) binding to TSHR coated wells; test sample at 1 µg/mL diluted in HBD serum pool
[14] = target: TSH receptor (full length human TSHR) (human) (UniProt P16473); assay: competition ELISA: inhibition of M22 Fab-peroxidase (competitor) binding to TSHR coated wells; test sample at 0.01 µg/mL diluted in assay buffer
[15] = target: TSHR with Phe134 mutated to Ala, expressed in CHO cells (human) (UniProt P16473); assay: cell-based or functional assay
[16] = target: wild type TSHR expressed in CHO cells (human) (UniProt P16473); assay: cell-based or functional assay
[17] = target: TSHR with Phe134 mutated to Ala, expressed in CHO cells (human) (UniProt P16473); assay: cell-based or functional assay; remark: listed apart in the source
[18] = target: wild type TSHR expressed in CHO cells (human) (UniProt P16473); assay: cell-based or functional assay; remark: listed apart in the source
[19] = target: human thyroid stimulating hormone receptor (TSHR), full length (human) (UniProt P16473); assay: 125I-K1-18 Fab competition, TSHR coated tubes; 0.1 µg/mL in HBD
[20] = target: human thyroid stimulating hormone receptor (TSHR), full length (human) (UniProt P16473); assay: 125I-K1-18 Fab competition, TSHR coated tubes; 1 µg/mL in assay buffer
[21] = target: human thyroid stimulating hormone receptor (TSHR), full length (human) (UniProt P16473); assay: 125I-K1-18 Fab competition, TSHR coated tubes; 0.1 µg/mL in assay buffer
[22] = target: human TSH receptor (full length) coated on ELISA plate wells (human) (UniProt P16473); assay: TSH-biotin binding inhibition ELISA, TSHR coated wells; 1 µg/mL in assay buffer
[23] = target: thyroid stimulating hormone receptor (TSHR), full length, coated on tubes (human) (UniProt P16473); assay: inhibition of 125I-TSH binding, TSHR coated tubes; antibody 1 µg/mL in assay buffer
[24] = target: TSH receptor (TSHR), full length human, coated on tubes (human) (UniProt P16473); assay: inhibition of 125I-TSH binding to TSHR coated tubes; 100 µg/mL, diluted in assay buffer
[25] = target: TSH receptor (TSHR) coated on tubes (human) (UniProt P16473); assay: inhibition of 125I-K1-70 IgG binding to TSHR coated tubes; sample 0.01 µg/mL in HBD serum pool
[26] = target: thyroid stimulating hormone receptor (full length human TSHR) (human) (UniProt P16473); assay: ELISA: inhibition of M22 Fab-peroxidase (competitor) binding to TSHR coated wells; 0.01 µg/mL, diluted in HBD serum pool

Molecule 5B3 IgG (antibody) has an Inhibition of binding (%) [1] of -1.6%, an Inhibition of binding (%) [2] of -1.2% and an Inhibition of binding (%) [3] of -7.8%. The Inhibition of binding (%) [4] was -2.1%, the Inhibition of binding (%) [5] was 3.2% and the % inhibition of TSH-biotin binding [6] was -2%. The Inhibition of binding (%) [7] was 2.6%, the Inhibition of binding (%) [8] was -8.3% and the Inhibition of binding (%) [9] was -3.8%. It also gave an Inhibition of binding (%) [10] of -4.8% and an Inhibition of binding (%) [11] of 2.2%.

Molecule 9D33 IgG (antibody) has an Inhibition of binding (%) [12] of 39%, an Inhibition of binding (%) [13] of 57.8% and an Inhibition of binding (%) [14] of 14.8%.

TSH (ligand) gave a Cyclic AMP produced, TSH 0.01 ng/mL, mutated TSHR [15] of 4.73 pmol/mL, a Cyclic AMP produced, TSH 0.03 ng/mL, mutated TSHR [15] of 6.05 pmol/mL and a Cyclic AMP produced, TSH 0.1 ng/mL, mutated TSHR [15] of 12.7 pmol/mL. The Cyclic AMP produced, TSH 0.3 ng/mL, mutated TSHR [15] was 27.3 pmol/mL, the Cyclic AMP produced, TSH 1 ng/mL, mutated TSHR [15] was 53.7 pmol/mL and the Cyclic AMP produced, TSH 3 ng/mL, mutated TSHR [15] was 61.5 pmol/mL. The Mutated/Wild type (%), TSH 0.01 ng/mL [15] was 189%, the Mutated/Wild type (%), TSH 0.03 ng/mL [15] was 141% and the Mutated/Wild type (%), TSH 0.1 ng/mL [15] was 120%. It also gave a Mutated/Wild type (%), TSH 0.3 ng/mL [15] of 94%, a Mutated/Wild type (%), TSH 1 ng/mL [15] of 102% and a Mutated/Wild type (%), TSH 3 ng/mL [15] of 101%. It also gave a Cyclic AMP produced, TSH 0.01 ng/mL, wild type TSHR [16] of 2.5 pmol/mL, a Cyclic AMP produced, TSH 0.03 ng/mL, wild type TSHR [16] of 4.29 pmol/mL and a Cyclic AMP produced, TSH 0.1 ng/mL, wild type TSHR [16] of 10.6 pmol/mL. The Cyclic AMP produced, TSH 0.3 ng/mL, wild type TSHR [16] was 28.9 pmol/mL, the Cyclic AMP produced, TSH 1 ng/mL, wild type TSHR [16] was 52.5 pmol/mL and the Cyclic AMP produced, TSH 3 ng/mL, wild type TSHR [16] was 61.1 pmol/mL. The % inhibition of TSH stimulation; TSH (2) [17] was 9%, the Cyclic AMP produced; TSH 3 ng/mL [17] was 111 pmol/mL and the Cyclic AMP produced; TSH (2) [17] was 102 pmol/mL. For the same molecule, the Mutated/wild type (%) of cyclic AMP produced; TSH 3 ng/mL [17] was 103%, the Mutated/wild type (%) of cyclic AMP produced; TSH (2) [17] was 71% and the Cyclic AMP produced; TSH 3 ng/mL [18] was 108 pmol/mL. It also gave a Cyclic AMP produced; TSH (2) [18] of 142 pmol/mL.

B1: 5C9 IgG (antibody, from another filing, V domains shown)
VH: EVQLVESGGGLIQPGGSLRLSCAASGFTVSSNYMSWVRQAPGKGLEWVSVTYSGGSTSYADSVKGRFTISRDNSKNTLYLQMNSLRAEDTAVYYCARGGRYCSSISCYARSGCDYWGQGTLVTVSS
VL: AIQMTQSPSSLSASVGDRVTITCRASQSISNYLNWYQQKPGKAPKLLIYAASSLQSGVPSRFSGSGSGTDFTLTISSLQPEDFATYYCQQSYSSPSTTFGQGTKLEIK
For B1, the Inhibition of binding (%) [19] was 6.3%, the Inhibition of binding (%) [20] was 52.5% and the Inhibition of binding (%) [21] was 27.7%. The % inhibition of TSH-biotin binding [22] was 42.9%, the Inhibition of binding (%) [23] was 23.5% and the Inhibition of binding (%) [24] was 92.5%. The Inhibition of binding (%) [25] was 2.8% and the Inhibition of binding (%) [26] was 0.9%.
